Measured values: patent US20240218065A1 (SHENGHE CHINA BIOPHARMACEUTICAL, published 2024)
Residue numbers refer to the chain shown, from its start. Where two headings read alike, the source gives them in different places.

T1: Human-NKP30-His (Kactus, cat: NKP-HM430) (human, UniProt O14931 19-138, limits assumed)
T1 construct: also called NKP30 protein; NKP30-his protein; not shown: His tag
T1 sequence (looked up): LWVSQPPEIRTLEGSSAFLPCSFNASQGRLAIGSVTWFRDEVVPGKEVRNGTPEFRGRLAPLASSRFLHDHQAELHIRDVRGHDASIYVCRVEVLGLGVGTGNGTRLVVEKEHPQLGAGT

B1: GPC-3 and CD3 bispecial antibody (ERY974) (bispecific antibody, human IgG4 S228P, kappa, N297A)
chain 1: QVQLVQSGAEVKKPGASVTVSCKASGYTFTDYEMHWIRQPPGEGLEWIGAIDGPTPDTAYSEKFKGRVTLTADKSTSTAYMELSSLTSEDTAVYYCTRFYSYTYWGQGTLVTVSSASTKGPSVFPLAPCSRSTSESTAALGCLVKDYFPEPVTVSWNSGALTSGVHTFPAVLQSSGLYSLSSVVTVPSSSLGTQTYTCNVDHKPSNTKVDKRVESKYGPPCPPCPAPEFRGGPKVFLFPPKPKDTLMISRTPEVTCVVVDVSQEDPEVQFNWYVDGVEVHNAKTKPREEQFASTYRVVSVLTVLHQDWLNGKEYKCKVSNKGLPSSIEKTISKAKGQPREPQVYTLPPSQEEMTKNQVSLTCLVKGFYPSDIAVEWESNGQPENNYKTTPPVLDSDGSFFLYSKLTVDKSRWQEGNVFSCSVMHEALHNHYTQESLSLSP
chain 2: QVQLVESGGGVVQPGGSLRLSCAASGFTFSNAWMHWVRQAPGKGLEWVAQIKDKSQNYATYVAESVKGRFTISRADSKNSIYLQMNSLKTEDTAVYYCRYVHYAAGYGVDIWGQGTTVTVSSASTKGPSVFPLAPCSRSTSESTAALGCLVKDYFPEPVTVSWNSGALTSGVHTFPAVLQSSGLYSLSSVVTVPSSSLGTKTYTCNVDHKPSNTKVDKRVESKYGPPCPPCPAPEFRGGPKVFLFPPKPKDTLMISRTPEVTCVVVDVSQEDPEVQFNWYVDGVEVHNAKTKPREEQFASTYRVVSSLTVLHQDWLNGKEYKCKVSNKGLPSSIEKTISKAKGQPREPQVYTLPPSQKEMTKNQVSLTCLVKGFYPSDIAVEWESNGQPENNYKTTPPVLDSSGSFFLYSKLTVDKSRWQEGNVFSCSVMHEALHNHYTQKSLSLSP
chain 3: DIVMTQSPLSLPVTPGEPASISCRSSQPLVHSNRNTYLHWYQQKPGQAPRLLIYKVSNRFSGVPDRFSGSGSGTDFTLKISRVEAEDVGVYYCGQGTQVPYTFGQGTKLEIKRTVAAPSVFIFPPSDEQLKSGTASVVCLLNNFYPREAKVQWKVDNALQSGNSQESVTEQDSKDSTYSLSSTLTLSKADYEKHKVYACEVTHQGLSSPVTKSFNRGEC
notes: also called anti-CD3 epsilon and anti-GPC3 bispecific antibody
B2: GN15-F (bispecific antibody, human IgG1, kappa)
light: B1 chain 3 with I2V, P28S, Q42L, A48S, R50Q, G94S, G96N, Q98H, Y101P
heavy 1: not shown
heavy 2: QVQLVQSGAEVKKPGASVKVSCKASGYTFTDYEMHWVRQAPGQGLEWMGALDPKTGDTAYSQKFKGRVTLTADKSTSTAYMELSSLTSEDTAVYYCTRFYSYTYWGQGTLVTVSSASTKGPSVFPLAPSSKSTSGGTAALGCLVKDYFPEPVTVSWNSGALTSGVHTFPAVLQSSGLYSLSSVVTVPSSSLGTQTYICNVNHKPSNTKVDKKVEPKSCDKTHTCPPCPGGGGSGGGGSPALLLLLLLRPPATRGITCPPPMSVEHADIWVKSYSLYSRERYICNSGFKRKAGTSSLTECVLNKATNVAHWTTPSLKCIRDPALVHQRPAPPSTVTTAGVTPQPESLSPSGKEGGGGSGGGGSAPELLGGPSVFLFPPKPKDTLMISRTPEVTCVVVDVSHEDPEVKFNWYVDGVEVHNAKTKPREEQYNSTYRVVSVLTVLHQDWLNGKEYKCKVSNKALPAPIEKTISKAKGQPREPQVYTLPPSRDELTKNQVSLTCLVKGFYPSDIAVEWESNGQPENNYKTTPPVLDSDGSFFLASKLTVDKSRWQQGNVFSCSVMHEALHNHYTQKSLSLSPGK
notes: Trifunctional antibody against GPC-3 and NKP30 with IL-15 and IL-15Rα sushi between CH1 and CH2; also called constructed antibody GN15-F; multifunctional antibody

Assays:
Human-GPC3-His [1] = target: T2, Human-GPC3-His (human, UniProt P51654 25-559, limits assumed); assay: ELISA: Human-GPC3-His coated at 0.5 µg/mL, antibody titrated 3-fold from 10 µg/mL, HRP goat anti-human IgG-Fc, OD450-OD570
T2 construct: Coated on the ELISA plate; also called GPC-3 protein; GPC3 protein; not shown: His tag
T2 sequence (P51654 25-559 limits assumed): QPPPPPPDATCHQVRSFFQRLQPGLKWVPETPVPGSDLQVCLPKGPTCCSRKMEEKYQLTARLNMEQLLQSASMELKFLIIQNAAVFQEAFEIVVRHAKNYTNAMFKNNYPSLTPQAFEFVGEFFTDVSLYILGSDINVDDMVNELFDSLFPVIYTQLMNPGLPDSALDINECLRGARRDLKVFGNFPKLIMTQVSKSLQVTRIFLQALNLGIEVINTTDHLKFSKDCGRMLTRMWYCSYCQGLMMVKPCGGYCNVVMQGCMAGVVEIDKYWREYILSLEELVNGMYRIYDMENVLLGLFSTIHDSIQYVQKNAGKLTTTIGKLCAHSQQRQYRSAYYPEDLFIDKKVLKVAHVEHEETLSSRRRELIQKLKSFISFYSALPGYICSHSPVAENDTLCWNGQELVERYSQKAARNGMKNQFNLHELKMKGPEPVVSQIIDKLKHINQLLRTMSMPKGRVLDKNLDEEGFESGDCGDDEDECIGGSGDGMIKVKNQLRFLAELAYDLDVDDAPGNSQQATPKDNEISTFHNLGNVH
Protocol: (§1) Human-GPC3-His was diluted to 0.5 μg/mL with PBS buffer at pH 7.4, added into the 96-well ELISA plate at 100 μL per well, coated overnight at 4° C., and blocked with 1% BSA blocking solution for 1 hour. The plate was washed 3 times with PBST, and the constructed antibody was diluted to 10 μg/mL with 0.5% BSA sample diluent as the starting concentration, and then diluted by 3-fold gradient (11 gradients in total) and incubated at 37° C. for 1 h at 100 μL per well. The plate was washed 3 times with PBST, and then HRP-labelled goat anti-human IgG-Fc was diluted with the sample diluent at 1:20000. 100 μL was added into each well, and incubated at room temperature for 1 hour. A negative control (blank well and IgG1 isotype control) and a positive control were set, and the positive control was a GPC-3 and CD3 bispecial antibody from the literature Hs, A, et al. “Engineering a bispecific antibody with a common light chain: Identification and optimization of an anti-CD3 epsilon and anti-GPC3 bispecific antibody, ERY974.” Methods 154 (2019): 10-20. (The GPC-3 and CD3 bispecial antibody sequence consists of SEQ ID No. 22, SEQ ID No. 23, and SEQ ID No. 24). The plate was washed 4 times with PBST, and 100 μL of TMB substrate was added into each well, and incubated at room temperature without light for 10 minutes. 100 μL of 1 M HCl solution was added into each well to terminate the color development reaction. The absorbance value of each well in the 96-well plate was determined by selecting the wavelength of 450 nm and the reference wavelength of 570 nm on a multifunctional enzyme marker, and the absorbance value (OD)=OD₄₅₀ₙₘ−OD₅₇₀ₙₘ. The logarithm of the concentration of the constructed antibody was taken as the abscissa, and the measured absorbance value of each well was taken as the ordinate, and the Sigmoidaldose-response (Variable Slope) method (GraphPad Prism software, GraphPad Software, San Diego, California) was selected for nonlinear regression to obtain the binding curve of the target antibody to the GPC-3 protein.

Human-GPC3-His [2] = target: T2, Human-GPC3-His; assay: as above; remark: listed apart in the source
Protocol: as §1

Human-GPC3-His [3] = target: T2, Human-GPC3-His; assay: as above; remark: listed apart in the source
Protocol: as §1

[4] = target: T1, Human-NKP30-His (Kactus, cat: NKP-HM430); assay: ELISA: Human-NKP30-His coated, antibody titrated 3-fold from 10 µg/mL, HRP goat anti-human IgG-Fc, OD450-OD570
Protocol: Human-NKP30-His (Kactus, cat: NKP-HM430) was diluted to […] with PBS buffer at pH 7.4, added into the 96-well ELISA plate at 100 μL per well, coated overnight at 4° C., and blocked with 1% BSA blocking solution for 1 hour. The plate was washed 3 times with PBST, and the constructed antibodies were diluted to 10 μg/mL with 0.5% BSA sample diluent as the starting concentration, and then diluted by 3-fold gradient (11 gradients in total). A negative control (blank well and IgG1 isotype control) and a positive control were set, and the positive control was a NKP30 humanized antibody (sequence shown in SEQ ID No. 28), and incubated at 37° C. for 1 h at 100 μL per well. The plate was washed 3 times with PBST, and then HRP-labelled goat anti-human IgG-Fc was diluted with the sample diluent at 1:20000. 100 μL was added into each well, and incubated at room temperature for 1 hour. The plate was washed 4 times with PBST, and 100 μL of TMB substrate was added into each well, and incubated at room temperature without light for 10 minutes. 100 μL of 1 M HCl solution was added into each well to terminate the color development reaction. The absorbance value of each well in the 96-well plate was determined by selecting the wavelength of 450 nm and the reference wavelength of 570 nm on a multifunctional enzyme marker, and the absorbance value (OD)=OD₄₅₀ₙₘ−OD₅₇₀ₙₘ. The logarithm of the concentration of the constructed antibody was taken as the abscissa, and the measured absorbance value of each well was taken as the ordinate, and the Sigmoidaldose-response (Variable Slope) method (GraphPad Prism software, GraphPad Software, San Diego, California) was selected for nonlinear regression to obtain the binding curve of the target antibody to NKP30.

Row | Binder | EC50 (read off the curve) (Human-GPC3-His [1]) [µg/mL] | EC50 (read off the curve) (Human-GPC3-His [2]) [µg/mL] | EC50 (read off the curve) (Human-GPC3-His [3]) [µg/mL] | EC50 (read off the curve) [4] [µg/mL]
1 | B1 | ~0.01 | ~0.03 | ~0.03 | –
2 | B2 | – | – | ~0.02 | ~0.03
